Results: the supplement of paper PMC10065799, “High-throughput profiling of sequence recognition by tyrosine kinases and SH2 domains using bacterial peptide display” (eLife, 2023)

Experiments:
SHP2-C SH2 = experiment: SH2 binding enrichment of the phosphorylated peptide, bacterial display (enrichment ratio); higher = better substrate or ligand; peptides without Tyr show the background
Grb2 SH2 = Grb2 SH2 (UniProt P62993); experiment: as above
c-Src SH2 = experiment: as above
Hck = Hck (UniProt P08631); experiment: phosphorylation enrichment, bacterial display (enrichment ratio); higher = better substrate or ligand; peptides without Tyr show the background
Fes = Fes (UniProt P07332); experiment: as above
c-Abl (mouse) = experiment: as above
FGFR1 = FGFR1 (UniProt P11362); experiment: as above
c-Src = experiment: as above
EPHB1 = EPHB1 (UniProt P54762); experiment: as above
Jak2 = Jak2 (UniProt O60674); experiment: as above
Fer (mouse) = experiment: as above
MERTK = MERTK (UniProt Q12866); experiment: as above
AncSZ = experiment: as above
FGFR3 = FGFR3 (UniProt P22607); experiment: as above
Fyn = Fyn (UniProt P06241); experiment: as above
EPHB2 = EPHB2 (UniProt P29323); experiment: as above
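For SH2 binding enrichment of the phosphorylated peptide, bacterial display in this document: peptide library displayed on the E. coli surface as eCPX fusions, selected cells deep-sequenced, score is each peptide's frequency after selection divided by its frequency in the input.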
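For phosphorylation enrichment, bacterial display in this document: 11-residue human phosphosite peptides and single-mutation variants displayed on the E. coli surface, counted by deep sequencing, each peptide's frequency after selection divided by its frequency in the unselected input library; frequency after pTyr selection over input frequency; kinase dosed for 20-30% of maximal phosphorylation in three min.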

Fes, sequence (P07332 whole entry, looked up): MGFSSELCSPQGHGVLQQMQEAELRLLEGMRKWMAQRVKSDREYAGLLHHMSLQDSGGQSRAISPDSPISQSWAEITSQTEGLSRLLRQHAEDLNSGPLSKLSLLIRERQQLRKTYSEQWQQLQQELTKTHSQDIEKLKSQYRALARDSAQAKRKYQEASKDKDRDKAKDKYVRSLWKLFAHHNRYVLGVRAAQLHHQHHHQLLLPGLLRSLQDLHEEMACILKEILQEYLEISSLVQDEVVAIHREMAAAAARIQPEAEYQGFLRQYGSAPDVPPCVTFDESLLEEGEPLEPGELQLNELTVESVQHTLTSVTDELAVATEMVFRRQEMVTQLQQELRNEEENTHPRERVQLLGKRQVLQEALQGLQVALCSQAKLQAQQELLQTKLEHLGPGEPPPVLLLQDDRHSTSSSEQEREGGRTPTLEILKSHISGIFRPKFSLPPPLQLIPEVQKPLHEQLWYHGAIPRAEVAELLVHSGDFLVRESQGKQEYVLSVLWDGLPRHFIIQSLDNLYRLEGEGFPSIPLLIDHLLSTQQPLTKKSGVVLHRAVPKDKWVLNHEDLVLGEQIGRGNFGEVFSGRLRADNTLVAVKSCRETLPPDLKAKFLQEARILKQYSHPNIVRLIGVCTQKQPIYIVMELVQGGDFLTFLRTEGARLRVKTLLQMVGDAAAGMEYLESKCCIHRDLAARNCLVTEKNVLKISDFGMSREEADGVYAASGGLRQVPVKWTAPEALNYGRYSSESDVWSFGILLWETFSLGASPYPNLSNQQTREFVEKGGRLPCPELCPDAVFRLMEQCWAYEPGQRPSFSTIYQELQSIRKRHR
FGFR3, sequence (P22607 whole entry, looked up): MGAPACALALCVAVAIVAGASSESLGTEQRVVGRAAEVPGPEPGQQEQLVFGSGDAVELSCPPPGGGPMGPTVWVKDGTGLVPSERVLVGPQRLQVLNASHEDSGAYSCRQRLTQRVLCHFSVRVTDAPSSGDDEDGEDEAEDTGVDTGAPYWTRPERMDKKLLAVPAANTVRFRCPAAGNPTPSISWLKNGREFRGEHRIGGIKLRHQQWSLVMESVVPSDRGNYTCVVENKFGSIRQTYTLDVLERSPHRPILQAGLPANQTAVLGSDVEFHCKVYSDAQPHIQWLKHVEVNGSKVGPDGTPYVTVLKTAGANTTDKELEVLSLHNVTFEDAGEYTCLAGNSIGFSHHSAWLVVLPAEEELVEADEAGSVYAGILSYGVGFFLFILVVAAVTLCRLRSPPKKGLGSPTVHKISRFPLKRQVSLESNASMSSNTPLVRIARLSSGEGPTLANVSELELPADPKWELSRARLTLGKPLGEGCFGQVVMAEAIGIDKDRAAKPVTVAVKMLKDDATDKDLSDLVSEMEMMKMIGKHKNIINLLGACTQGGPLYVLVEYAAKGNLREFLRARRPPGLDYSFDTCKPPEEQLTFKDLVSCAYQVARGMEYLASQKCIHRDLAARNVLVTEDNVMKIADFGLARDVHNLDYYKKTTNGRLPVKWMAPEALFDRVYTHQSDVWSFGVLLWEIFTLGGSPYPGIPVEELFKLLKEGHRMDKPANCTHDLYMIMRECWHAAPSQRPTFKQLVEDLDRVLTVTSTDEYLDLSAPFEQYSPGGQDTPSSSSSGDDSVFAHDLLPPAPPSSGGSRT
Hck, sequence (P08631 whole entry, looked up): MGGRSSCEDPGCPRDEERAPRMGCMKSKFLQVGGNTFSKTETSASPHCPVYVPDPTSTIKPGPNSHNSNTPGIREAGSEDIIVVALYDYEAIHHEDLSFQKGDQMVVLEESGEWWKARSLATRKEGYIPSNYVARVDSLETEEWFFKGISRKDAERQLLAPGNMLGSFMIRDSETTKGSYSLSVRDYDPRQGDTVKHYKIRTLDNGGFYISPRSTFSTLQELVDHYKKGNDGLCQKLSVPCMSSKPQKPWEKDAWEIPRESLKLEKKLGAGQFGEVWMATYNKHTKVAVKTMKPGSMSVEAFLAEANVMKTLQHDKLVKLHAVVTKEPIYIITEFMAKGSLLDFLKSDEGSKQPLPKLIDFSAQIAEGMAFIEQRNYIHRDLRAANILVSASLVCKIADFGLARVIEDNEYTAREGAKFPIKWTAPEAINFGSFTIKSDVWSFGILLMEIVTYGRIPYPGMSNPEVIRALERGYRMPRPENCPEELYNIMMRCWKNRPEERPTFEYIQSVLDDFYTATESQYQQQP
EPHB1, sequence (P54762 whole entry, looked up): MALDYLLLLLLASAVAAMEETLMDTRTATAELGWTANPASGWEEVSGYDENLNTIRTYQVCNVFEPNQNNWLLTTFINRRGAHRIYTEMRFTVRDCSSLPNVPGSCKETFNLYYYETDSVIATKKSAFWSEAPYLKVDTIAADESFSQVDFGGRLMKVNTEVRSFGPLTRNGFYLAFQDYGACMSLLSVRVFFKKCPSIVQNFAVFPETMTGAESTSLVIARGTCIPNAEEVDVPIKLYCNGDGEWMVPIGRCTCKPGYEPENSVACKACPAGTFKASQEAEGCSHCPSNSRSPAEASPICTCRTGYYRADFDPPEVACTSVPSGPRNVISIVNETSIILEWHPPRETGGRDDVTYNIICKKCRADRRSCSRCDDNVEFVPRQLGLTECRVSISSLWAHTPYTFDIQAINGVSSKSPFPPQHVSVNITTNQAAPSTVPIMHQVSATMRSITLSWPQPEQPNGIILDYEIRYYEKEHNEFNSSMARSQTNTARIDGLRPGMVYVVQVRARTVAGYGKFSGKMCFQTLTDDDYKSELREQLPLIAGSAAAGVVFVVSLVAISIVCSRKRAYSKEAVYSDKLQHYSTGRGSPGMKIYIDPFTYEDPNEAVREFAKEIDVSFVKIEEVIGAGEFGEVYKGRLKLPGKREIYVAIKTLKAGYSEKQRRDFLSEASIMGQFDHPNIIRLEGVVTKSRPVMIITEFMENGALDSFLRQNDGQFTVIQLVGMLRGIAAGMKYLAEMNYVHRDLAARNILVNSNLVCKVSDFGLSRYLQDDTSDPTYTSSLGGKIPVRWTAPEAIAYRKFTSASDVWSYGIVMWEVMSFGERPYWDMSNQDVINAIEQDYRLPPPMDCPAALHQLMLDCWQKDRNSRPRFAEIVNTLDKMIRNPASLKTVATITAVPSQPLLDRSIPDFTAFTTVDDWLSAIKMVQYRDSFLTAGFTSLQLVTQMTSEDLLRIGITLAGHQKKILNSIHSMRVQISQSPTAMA
Fyn, sequence (P06241 whole entry, looked up): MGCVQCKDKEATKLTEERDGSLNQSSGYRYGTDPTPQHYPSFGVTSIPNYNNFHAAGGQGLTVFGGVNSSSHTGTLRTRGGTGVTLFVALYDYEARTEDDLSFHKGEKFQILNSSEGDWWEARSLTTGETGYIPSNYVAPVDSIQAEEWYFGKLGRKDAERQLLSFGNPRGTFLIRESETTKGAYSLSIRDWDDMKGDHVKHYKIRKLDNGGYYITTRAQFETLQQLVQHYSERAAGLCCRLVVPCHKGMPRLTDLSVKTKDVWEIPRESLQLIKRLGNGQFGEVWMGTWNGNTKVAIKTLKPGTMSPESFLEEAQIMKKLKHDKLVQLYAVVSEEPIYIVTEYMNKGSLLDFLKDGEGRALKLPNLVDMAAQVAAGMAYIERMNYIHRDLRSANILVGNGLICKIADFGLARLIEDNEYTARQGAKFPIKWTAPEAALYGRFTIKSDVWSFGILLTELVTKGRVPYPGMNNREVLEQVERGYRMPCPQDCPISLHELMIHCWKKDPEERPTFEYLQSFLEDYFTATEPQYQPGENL
Jak2, sequence (O60674 whole entry, looked up): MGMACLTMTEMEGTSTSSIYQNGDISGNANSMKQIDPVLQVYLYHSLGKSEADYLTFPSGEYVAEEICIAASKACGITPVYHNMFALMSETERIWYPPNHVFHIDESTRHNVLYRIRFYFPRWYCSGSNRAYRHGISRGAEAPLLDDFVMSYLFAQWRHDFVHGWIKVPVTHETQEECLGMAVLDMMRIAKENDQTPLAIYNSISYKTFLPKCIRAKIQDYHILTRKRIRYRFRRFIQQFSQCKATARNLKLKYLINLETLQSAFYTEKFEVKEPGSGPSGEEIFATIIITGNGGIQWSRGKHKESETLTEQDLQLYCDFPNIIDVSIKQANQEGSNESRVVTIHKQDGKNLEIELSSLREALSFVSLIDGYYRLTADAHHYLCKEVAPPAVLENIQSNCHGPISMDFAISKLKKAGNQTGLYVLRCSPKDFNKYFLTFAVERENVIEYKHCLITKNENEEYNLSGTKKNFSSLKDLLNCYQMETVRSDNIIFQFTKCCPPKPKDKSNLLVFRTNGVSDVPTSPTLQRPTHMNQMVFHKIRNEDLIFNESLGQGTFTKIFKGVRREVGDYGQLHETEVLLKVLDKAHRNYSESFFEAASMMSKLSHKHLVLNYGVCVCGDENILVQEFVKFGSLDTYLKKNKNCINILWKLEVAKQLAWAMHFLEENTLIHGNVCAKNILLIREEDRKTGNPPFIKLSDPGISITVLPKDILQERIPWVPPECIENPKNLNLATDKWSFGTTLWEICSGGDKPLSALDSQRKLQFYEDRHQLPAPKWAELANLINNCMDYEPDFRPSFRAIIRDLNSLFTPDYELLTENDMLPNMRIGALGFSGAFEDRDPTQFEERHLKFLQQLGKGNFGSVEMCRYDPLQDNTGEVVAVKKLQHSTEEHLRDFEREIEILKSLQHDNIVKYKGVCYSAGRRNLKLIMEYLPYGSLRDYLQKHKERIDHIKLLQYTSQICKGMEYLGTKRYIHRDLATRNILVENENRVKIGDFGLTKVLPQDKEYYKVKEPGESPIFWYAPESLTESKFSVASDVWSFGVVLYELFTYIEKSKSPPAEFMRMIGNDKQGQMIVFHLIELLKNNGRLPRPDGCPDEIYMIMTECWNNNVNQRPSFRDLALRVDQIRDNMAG
Grb2 SH2, sequence (P62993 whole entry, looked up): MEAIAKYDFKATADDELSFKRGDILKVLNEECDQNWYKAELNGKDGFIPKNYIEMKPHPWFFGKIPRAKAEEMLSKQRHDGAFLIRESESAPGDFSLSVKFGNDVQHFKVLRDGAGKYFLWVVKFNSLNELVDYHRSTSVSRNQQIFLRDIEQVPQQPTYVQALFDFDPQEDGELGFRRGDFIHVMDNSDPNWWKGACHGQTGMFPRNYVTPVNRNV

Sequence | SH2 binding enrichment (SHP2-C SH2) | SH2 binding enrichment (Grb2 SH2) | SH2 binding enrichment (c-Src SH2) | phosphorylation enrichment (Hck) | phosphorylation enrichment (Fes) | phosphorylation enrichment (c-Abl (mouse)) | phosphorylation enrichment (FGFR1) | phosphorylation enrichment (c-Src) | phosphorylation enrichment (EPHB1) | phosphorylation enrichment (Jak2) | phosphorylation enrichment (Fer (mouse)) | phosphorylation enrichment (MERTK) | phosphorylation enrichment (AncSZ) | phosphorylation enrichment (FGFR3) | phosphorylation enrichment (Fyn) | phosphorylation enrichment (EPHB2)
GVSFIYTIDGS [DCX_Y105_R102S_YF] | 0.725 | 0.88 | 0.584 | 0.976 | 1.31 | 0.927 | 0.496 | 1.98 | 0.694 | 1.54 | 0.491 | 0.552 | 1.43 | 0.753 | 2.18 | 0.532
GYRPVYSEDEQ [CHST6_Y362] | 0.669 | 0.921 | 0.692 | 0.49 | 1.24 | 0.774 | 0.471 | 0.636 | 0.677 | 1.16 | 0.643 | 0.48 | 1.26 | 0.806 | 0.61 | 0.762
GYSRHCEDGYP [CTNND1_Y217_Y217C] | 0.563 | 0.796 | 0.544 | 0.5 | 0.972 | 0.928 | 0.46 | 0.489 | 0.521 | 0.879 | 0.465 | 0.446 | 0.869 | 0.556 | 0.44 | 0.83
HAVFVCDICHV [TWNK_Y508_Y508C_YF] | 1.41 | 1.97 | 1.98 | 0.603 | 0.836 | 0.641 | 0.506 | 0.807 | 0.627 | 0.948 | 0.696 | 0.689 | 0.933 | 0.775 | 0.455 | 0.631
HAVVDYMRRQK [ATM_Y1915_L1910H] | 0.364 | 0.6 | 0.381 | 0.694 | 1.14 | 0.595 | 0.799 | 0.539 | 0.701 | 0.892 | 0.535 | 0.654 | 1.16 | 1 | 0.634 | 1.03
HCFNSYTFPRL [PAK7_Y316_S312C_YF] | 0.574 | 0.734 | 0.678 | 0.564 | 1.72 | 0.795 | 0.713 | 0.469 | 0.752 | 1.31 | 0.804 | 0.591 | 1.94 | 0.978 | 0.707 | 0.743
HEHVGYTTLNR [CHN1_Y148_Y143H] | 61.4 | 0.88 | 3.47 | 0.57 | 0.667 | 0.936 | 0.573 | 0.618 | 0.498 | 0.669 | 0.351 | 0.44 | 0.63 | 0.744 | 0.489 | 0.429
HFMKLYEEKTG [PARP1_Y618] | 0.962 | 0.766 | 0.433 | 0.519 | 0.663 | 0.355 | 0.464 | 0.425 | 0.482 | 0.592 | 0.277 | 0.438 | 0.862 | 1.08 | 0.282 | 0.46
HIKHNYECLVY [XRCC5_Y416] | 0.693 | 0.772 | 5.15 | 0.638 | 1.05 | 0.882 | 0.924 | 1.78 | 2.87 | 0.935 | 0.514 | 0.548 | 1.05 | 0.839 | 0.868 | 2.44
HIPFRYPKEFQ [IDS_Y234] | 1.12 | 1.1 | 0.862 | 0.564 | 1.26 | 0.946 | 0.442 | 0.756 | 0.521 | 0.815 | 0.344 | 0.645 | 0.826 | 0.66 | 0.424 | 0.641
HKLSFCEFDFE [BTK_Y40_Y40C_YF] | 0.937 | 1.11 | 0.622 | 0.83 | 3.4 | 1.78 | 0.844 | 1.03 | 0.934 | 2.48 | 0.965 | 0.776 | 3.33 | 1.34 | 0.764 | 0.787
HLVSEYQQYQD [TUBB3_Y422_D417H] | 0.605 | 0.956 | 1.02 | 1.21 | 1.61 | 0.98 | 0.868 | 0.939 | 1.07 | 1.29 | 0.72 | 0.482 | 1.78 | 1.05 | 0.652 | 1.11
HNLDYYKQTTN [FGFR3_Y648_K650Q] | 0.883 | 0.656 | 0.839 | 0.704 | 1.01 | 0.793 | 3.5 | 0.476 | 0.786 | 1.27 | 0.585 | 0.658 | 0.979 | 2.61 | 0.714 | 0.536
HNLPIYEGYAL [ACTA1_Y168_V165L] | 0.714 | 0.835 | 2.85 | 9.09 | 1.16 | 2.79 | 0.547 | 6.97 | 17 | 0.566 | 19.3 | 6.51 | 1.24 | 0.64 | 11.6 | 22.7
HRAVEYLLTGI [RAD23A_Y197] | 0.846 | 0.851 | 0.575 | 0.7 | 1.02 | 0.709 | 0.8 | 0.458 | 0.846 | 0.736 | 0.488 | 0.549 | 0.991 | 0.817 | 0.739 | 0.636
HRDSSYYWEIE [RAF1_Y340_Q335H] | 0.938 | 0.842 | 10.9 | 1.47 | 1.67 | 0.818 | 6.05 | 1.92 | 3.07 | 1.03 | 0.612 | 4.59 | 1.69 | 4.34 | 1.97 | 1.72
HSDYQYGQRSQ [PKP2_Y168_S169G] | 1.1 | 1.01 | 0.567 | 0.574 | 0.44 | 0.484 | 0.357 | 0.402 | 0.449 | 0.446 | 0.478 | 0.439 | 0.618 | 0.457 | 0.578 | 0.335

Sequence | SH2 binding enrichment (SHP2-C SH2) | SH2 binding enrichment (Grb2 SH2) | SH2 binding enrichment (c-Src SH2) | phosphorylation enrichment (Hck) | phosphorylation enrichment (Fes) | phosphorylation enrichment (c-Abl (mouse)) | phosphorylation enrichment (FGFR1) | phosphorylation enrichment (c-Src) | phosphorylation enrichment (EPHB1) | phosphorylation enrichment (Jak2) | phosphorylation enrichment (Fer (mouse)) | phosphorylation enrichment (MERTK) | phosphorylation enrichment (AncSZ) | phosphorylation enrichment (FGFR3) | phosphorylation enrichment (Fyn) | phosphorylation enrichment (EPHB2)
HVEAVYIDIAD [PITPNA_Y140] | 0.647 | 0.931 | 0.541 | 0.837 | 1.18 | 0.831 | 5.13 | 1.87 | 2.52 | 0.922 | 2.23 | 0.708 | 1.39 | 2.96 | 1.14 | 1.27
HVKHNYECLVY [XRCC5_Y416_I412V] | 0.938 | 1.03 | 5.15 | 0.842 | 1.2 | 1.01 | 0.75 | 2.04 | 2.87 | 1.12 | 0.573 | 0.519 | 1.06 | 1.12 | 0.922 | 2.04
IAINKYGVSLI [MYO7A_Y2136] | 0.703 | 0.946 | 0.657 | 0.497 | 1.12 | 0.744 | 0.619 | 0.441 | 0.608 | 1.01 | 0.527 | 0.426 | 0.837 | 0.594 | 0.432 | 0.613
ICTVDYLLRLQ [RYR1_Y3921] | 0.813 | 0.852 | 0.459 | 0.542 | 1.41 | 0.966 | 0.529 | 0.444 | 0.659 | 1.12 | 0.736 | 0.428 | 1.21 | 0.733 | 0.539 | 0.618
IDDNQYAYLKA [HNF4A_Y286_E285Q] | 0.898 | 0.87 | 1.47 | 2.12 | 0.91 | 1.02 | 2.93 | 0.48 | 0.558 | 0.753 | 1 | 0.876 | 0.993 | 1.69 | 0.668 | 0.667
IDSTPYRQWYE [RPS8_Y109] | 0.814 | 0.731 | 0.771 | 0.514 | 1.05 | 0.608 | 0.521 | 0.606 | 0.455 | 0.79 | 0.51 | 0.424 | 1.28 | 0.753 | 0.492 | 0.501
IEDPFYGNDSD [ACP1_Y133_YF] | 0.855 | 0.942 | 0.529 | 0.628 | 1.55 | 1.1 | 0.643 | 0.75 | 0.782 | 2.17 | 0.755 | 0.487 | 1.51 | 0.966 | 0.556 | 0.65
IENKLCGMSDP [RET_Y1062_Y1062C] | 0.777 | 0.656 | 0.476 | 0.562 | 1.09 | 0.625 | 0.687 | 0.412 | 0.693 | 0.775 | 0.536 | 0.428 | 0.987 | 0.774 | 0.522 | 0.652
IEPCIYIPEDD [XPNPEP3_Y455_G453C] | 0.821 | 1.2 | 0.719 | 0.696 | 1.47 | 0.862 | 0.738 | 0.513 | 0.648 | 1.25 | 0.6 | 0.428 | 1.23 | 0.87 | 0.563 | 0.603
IFGVSYDEYRY [CFTR_Y512] | 0.896 | 0.776 | 1.36 | 0.617 | 1.05 | 0.638 | 0.688 | 1.27 | 0.557 | 0.882 | 0.496 | 0.434 | 0.932 | 0.664 | 0.644 | 0.504
IFQASYFRRGD [LTK_Y676_R673Q_YF] | 0.607 | 0.835 | 0.48 | 0.517 | 1.23 | 0.789 | 0.544 | 0.543 | 0.516 | 1.18 | 0.416 | 0.628 | 1.05 | 0.619 | 0.499 | 0.518
IFRASYFRKGG [ALK_Y1282_YF] | 0.513 | 0.589 | 0.461 | 0.674 | 0.899 | 0.721 | 0.518 | 0.688 | 0.55 | 1.11 | 0.581 | 0.706 | 1.02 | 0.625 | 0.619 | 0.621
IGCHAYGDQYR [IDH1_Y135_R132C] | 0.59 | 0.687 | 0.551 | 0.5 | 1.19 | 0.796 | 0.634 | 0.493 | 0.593 | 0.979 | 0.569 | 0.384 | 1.04 | 0.741 | 0.424 | 0.556
IGGHAYGDQYR [IDH1_Y135_R132G] | 0.548 | 0.776 | 0.416 | 0.428 | 0.59 | 0.386 | 0.364 | 0.36 | 0.405 | 0.431 | 0.448 | 0.357 | 0.52 | 0.382 | 0.382 | 0.368
IGKDLYANNVL [ACTA2_Y296_R292G] | 0.574 | 0.844 | 0.535 | 0.775 | 1.15 | 0.77 | 0.45 | 0.55 | 0.679 | 1.03 | 0.619 | 0.556 | 1.2 | 0.64 | 0.526 | 0.634
IGLHAYGDQYR [IDH1_Y135_R132L] | 0.599 | 0.847 | 0.469 | 0.529 | 0.834 | 0.561 | 0.46 | 0.473 | 0.469 | 0.563 | 0.48 | 0.426 | 0.681 | 0.598 | 0.498 | 0.487
